Test results taken from patent US20240166767A1 (SCIRHOM, published 2024).
Where a chain is given by its changes, count along the chain named.

B1: humanized antibody 42-B-04 (antibody, V domains shown)
VH: QVTLRESGPALVKPTQTLTLTCTFSGFSLSTFGRGVGWIRQPPGKALEWLAHIWWDDEKYYNSALKSRLTISKDTSKNQVVLTITNMDPVDTATYYCARIQNYGSNYWYFDVWGQGTLVTVSS
VL: AIQLTQSPSSLSASVGDRVTITCRASSRISYMFWYQQKPGKAPKVLIYDTSNLASGVPSRFSGSGSGTDYTLTISSLQPEDFATYYCQQWNAYPLTFGQGTKLEIK
notes: Tested as whole humanized antibody produced in CHO cells and detected with anti-human IgG; the general methods speak of human IgG1/Kappa; also called clone 42-B-04
B2: humanized antibody 23-B-04 (antibody, V domains shown)
VH: B1 VH with R34M, Q101S, D111N
VL: B1 VL with R28S, I29V, F33Y
notes: Tested as whole humanized antibody produced in CHO cells and detected with anti-human IgG; the general methods speak of human IgG1/Kappa; also called clone 23-B-04
B3: humanized antibody 42-B-02 (antibody, V domains shown)
VH: B1 VH
VL: B1 VL with A92S
notes: Tested as whole humanized antibody from transient expression of heavy chain/kappa light chain pairs in CHO cells, detected with anti-human IgG; the general methods speak of human IgG1/Kappa; also called clone 42-B-02
B4: humanized antibody 16-B-07 (antibody, V domains shown)
VH: QVTLRESGPALVKPTQTLTLTCTFSGFSLSTFALGVGWIRQPPGKALEWLAHIWWDEDKYYNPALKSRLTISKDTSKNQVVLTITNMDPVDTATYYCARITTYYYGMDYWGQGTLVTVSS
VL: EIVMTQSPDFQSVTPKEKVTITCRASQSIGNHLHWYQQKPDASPKLLIKYASQSISGVPSRFSGSGSGTDFTLTINSLEAEDAATYFCQQSYQWPLTFGQGTKLEIK
notes: Tested as whole humanized antibody produced in CHO cells and detected with anti-human IgG; the general methods speak of human IgG1/Kappa; also called clone 16-B-07
B5: humanized antibody 16-B-03 (antibody, V domains shown)
VH: B4 VH with E57D
VL: B4 VL
notes: Tested as whole humanized antibody produced in CHO cells and detected with anti-human IgG; the general methods speak of human IgG1/Kappa; also called clone 16-B-03
B6: humanized antibody 16-B-05 (antibody, V domains shown)
VH: B4 VH
VL: B4 VL with Q93N
notes: Tested as whole humanized antibody produced in CHO cells and detected with anti-human IgG; the general methods speak of human IgG1/Kappa; The printed LCVD reads SRESGSG where the printed cDNA encodes SRFSGSG; also called clone 16-B-05

What follows are binders tested against T1, mouse iRhom2 full length wild type C-terminally tagged with 3 consecutive copies of the T7 epitope (mouse, UniProt Q80WQ6 1-827) (assay: FACS on MEF-DKO-miR2-FL-WT-T7 cells).
T1 construct: also called miR2-FL-WT-T7; mouse iRhom2 variant
T1 sequence: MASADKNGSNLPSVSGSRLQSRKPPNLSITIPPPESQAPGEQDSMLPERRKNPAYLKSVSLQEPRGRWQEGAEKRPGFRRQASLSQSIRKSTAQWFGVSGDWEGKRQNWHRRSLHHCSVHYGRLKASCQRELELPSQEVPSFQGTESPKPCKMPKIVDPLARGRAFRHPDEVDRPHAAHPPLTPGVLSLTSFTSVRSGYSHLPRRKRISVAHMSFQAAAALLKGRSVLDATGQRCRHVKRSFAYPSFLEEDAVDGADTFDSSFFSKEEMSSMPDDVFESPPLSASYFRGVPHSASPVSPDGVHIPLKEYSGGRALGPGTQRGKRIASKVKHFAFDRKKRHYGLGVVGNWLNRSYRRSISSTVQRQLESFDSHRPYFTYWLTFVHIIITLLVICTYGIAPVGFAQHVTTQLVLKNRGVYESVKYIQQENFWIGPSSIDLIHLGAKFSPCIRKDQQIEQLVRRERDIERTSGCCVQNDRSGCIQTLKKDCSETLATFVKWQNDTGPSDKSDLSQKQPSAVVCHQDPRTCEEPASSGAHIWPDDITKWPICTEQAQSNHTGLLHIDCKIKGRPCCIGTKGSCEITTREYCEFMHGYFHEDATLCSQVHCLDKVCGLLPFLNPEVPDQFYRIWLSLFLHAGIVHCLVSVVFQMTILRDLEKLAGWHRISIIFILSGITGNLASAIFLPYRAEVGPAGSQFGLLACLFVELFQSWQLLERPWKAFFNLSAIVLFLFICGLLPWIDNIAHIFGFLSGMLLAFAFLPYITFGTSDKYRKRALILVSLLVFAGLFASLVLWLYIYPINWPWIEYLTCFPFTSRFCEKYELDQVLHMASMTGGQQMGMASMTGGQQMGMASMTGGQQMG
Method: In brief, immortalized MEF-DKO-EV control cells, MEF-DKO-hiR2-FL-WT-T7 cells and MEF-DKO-miR2-FL-WT-T7 cells were harvested with 10 mM EDTA in PBS, washed and resuspended in FACS buffer (PBS, 3% FBS, 0.05% sodium azide), and seeded in Nunc U-bottom 96-well plates (Thermo Fisher Scientific, USA) at approximately 3×10⁵ cells per well. To pellet cells and remove supernatants, the plates were centrifuged at 1,500 rpm and 4° C. for 3 minutes. For primary staining, cells were resuspended in 100 μl per well of either FACS buffer alone (controls), mouse monoclonal anti-T7 IgG (Merck Millipore, USA) at 3 μg/ml FACS buffer or the humanized antibodies 16-B-03, 16-B-05, 16-B-07, 23-B-04, 42-B-02 and 42-B-04 of the invention also at 3 μg/ml FACS buffer and incubated on ice for 1 hour. Afterwards, plates were centrifuged at 1,500 rpm and 4° C. for 3 minutes and washed twice with 200 μl per well of FACS buffer. For secondary staining of previous anti T7 staining, cells were spun down and resuspended in 100 μl per well of PE-conjugated goat anti-mouse IgG F(ab′)2 detection fragment (Dianova, Germany) diluted 1:100 in FACS buffer. For secondary staining of previous staining with humanized antibodies of invention, cells were spun down and resuspended in 100 μl per well of PE-conjugated goat anti-human IgG F(ab′)2 detection fragment (Dianova, Germany) diluted 1:100 in FACS buffer. Protected from light, the cell suspensions were incubated on ice for 1 hour. Plates were then centrifuged at 1,500 rpm and 4° C. for 3 minutes and washed three times with 200 μl per well of FACS buffer. Finally, cells were resuspended in 150 μl per well of FACS buffer and analyzed using a BD Accuri™ C6 Plus flow cytometer (Becton Dickinson, Germany).

Binder	binding result
B1	no binding (tested: 3 µg/ml)
B2	no binding (tested: 3 µg/ml)
B3	no binding (tested: 3 µg/ml)
B4	no binding (tested: 3 µg/ml)
B5	no binding (tested: 3 µg/ml)
B6	no binding (tested: 3 µg/ml)
